From paper PMC11827635 (Science Advances, 2025)

B2: αE-catenin α(CA), as it stands in the tetramer and pentamer (natural protein, mouse, UniProt P26231 1-906, looked up)
chain: MTAVHAGNINFKWDPKSLEIRTLAVERLLEPLVTQVTTLVNTNSKGPSNKKRGRSKKAHVLAASVEQATENFLEKGDKIAKESQFLKEELVVAVEDVRKQGDLMKSAAGEFADDPCSSVKRGNMVRAARALLSAVTRLLILADMADVYKLLVQLKVVEDGILKLRNAGNEQDLGIQYKALKPEVDKLNIMAAKRQQELKDVGNRDQMAAARGILQKNVPILYTASQACLQHPDVAAYKANRDLIYKQLQQAVTGISNAAQATASDDAAQHQGGSGGELAYALNNFDKQIIVDPLSFSEERFRPSLEERLESIISGAALGADSSCTEDDRRERIVAECNAVRQALQDLLSEYMGNAGRKERSDALNSAIDKMTKKTRDLRRQLRKAVMDHVSDSFLETNVPLLVLIEAAKNGNEKEVKEYAQVFREHANKLIEVANLACSISNNEEGVKLVRMSASQLEALCPQVINAALALAAKPQSKLAQENMDLFKEQWEKQVRVLTDAVDDITSIDDFLAVSENHILEDVNKCVIALQEKDVDGLDRTAGAIRGRAAEVIHVVTSEMDNYEPGVYTEKVLEATKLLSNTVMPRFTEQVEAAVEALSSDPAQPMDENEFIDASRLVYDGIRDIRKAVLMIRTPEELDDSDFETEDFDVRSRTSVQTEDDQLIAGQSARAIMAQLPQEQKAKIAEQVASFQEEKSKLDAEVSKWDDSGNDIIVLAKQMCMIMMEMTDFTRGKGPLKNTSDVISAAKKIAEAGSRMDKLGRTIADHCPDSACKQDLLAYLQRIALYCHQLNICSKVKAEVQNLGGELVVSGVDSAMSLIQAAKNLMNAVVQTVKASYVASTKYQKSQGMASLNLPAVSWKMKAPEKKPLVKREKQDETQTKIKRASQKKHVNPVQALSEFKAMDSI
notes: αE-catenin, α(CA); residues 690 to 903 are modelled in PDB 9DVA; single chain of m5, m6, m11 and m18, written for the pairs that touch; also called αE-catenin ABD (in the structure); ABD1; source: FreeStyle 293-F, co-expressed and purified within the cadherin-catenin–vinculin complex

How the values were obtained:
[1] = target: B2; assay: cryo-EM structure; 2.5 μM tetramer premixed with 5 μM afadin-CC, added to 0.6 μM F-actin on the grid; straight filaments 3.1 Å, curved filaments decorated along one strand 4.1 Å; settings: both partners purified
[2] = target: the molecule itself; assay: as above

B1: afadin coiled-coil region (afadin-CC) (domain or fragment, mouse, UniProt Q9QZQ1-3 1393-1602, looked up)
chain: ANQAGPQSAQVAAAEWKKREEHQRWYEKEKARLEEERERKRREQERKLGQMRSQTLNPASFSPLATQAKPEKPSTLQRPQETVIRELQPQQQPRTIERKDLQYITISKEELSSGDSLSPDPWKRDAREKLEKQQQMHIVDMLSKEIHELQNKVDRTAEESDRLRKLMLEWQFQKRLQESKQKDEDDDEEEDDDVDTMLIMQRLEAERRAR
notes: afadin, coiled-coil region (afadin-CC); residues 1508 to 1578 are modelled in PDB 9DVA; also called afadin-CC domain; source: FreeStyle 293-F, purified (anti-GFP beads, TEV, MonoQ, Superdex 200); not shown: GFP, N-terminal, cleaved
B1: binds [1].

B2: binds [2].
